Ten molecules from patent US20220112276A1 (Janssen / Centocor, published 2022) can be followed below.

Common to all, as to assay: SPR, VHH captured by anti-Fc, ECD analyte
(SPR reads the build-up and loss of mass on a sensor chip optically.)

The target of assay [1] is T1, mouse pIgR extracellular domain (ECD) (mouse, UniProt O70570 19-645).
T1 construct: Bought from R&D Systems (Cat 2800-PG-050); also called mpIgR ECD
T1 sequence: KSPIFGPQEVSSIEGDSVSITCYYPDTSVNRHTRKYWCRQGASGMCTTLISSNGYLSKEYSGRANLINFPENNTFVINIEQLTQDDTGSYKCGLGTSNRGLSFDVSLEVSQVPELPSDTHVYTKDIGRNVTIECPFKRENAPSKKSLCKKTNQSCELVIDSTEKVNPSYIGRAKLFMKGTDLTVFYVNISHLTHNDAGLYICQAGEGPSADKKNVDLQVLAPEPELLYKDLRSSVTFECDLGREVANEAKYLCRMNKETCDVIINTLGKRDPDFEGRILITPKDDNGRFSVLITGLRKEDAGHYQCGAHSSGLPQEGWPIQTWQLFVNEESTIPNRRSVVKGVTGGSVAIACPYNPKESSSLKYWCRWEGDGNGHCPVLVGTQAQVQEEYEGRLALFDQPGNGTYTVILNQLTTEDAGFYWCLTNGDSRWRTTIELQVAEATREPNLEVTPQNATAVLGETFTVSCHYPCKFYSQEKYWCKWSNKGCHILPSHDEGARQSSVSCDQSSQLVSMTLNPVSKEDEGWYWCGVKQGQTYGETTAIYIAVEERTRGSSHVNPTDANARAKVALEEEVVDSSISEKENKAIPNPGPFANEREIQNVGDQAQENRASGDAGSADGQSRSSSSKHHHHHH
In a few lines:
(§1)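 Single-cycle kinetics: ECD analyte from 30 nM, 3-fold series, low to high, with 30 min off-rate monitoring, over VHH captured at 0.5 ug/ml (~200-300 RU). HBSP plus 100 ug/ml BSA at 30 μL/min. Reference cell and buffer blank subtracted; global 1:1 Langmuir fit gave kon, koff, KD.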

Assay [2] has as its target T2, rat pIgR extracellular domain (rat, UniProt P15083 19-643).
T2 construct: extracellular domain
T2 sequence (looked up): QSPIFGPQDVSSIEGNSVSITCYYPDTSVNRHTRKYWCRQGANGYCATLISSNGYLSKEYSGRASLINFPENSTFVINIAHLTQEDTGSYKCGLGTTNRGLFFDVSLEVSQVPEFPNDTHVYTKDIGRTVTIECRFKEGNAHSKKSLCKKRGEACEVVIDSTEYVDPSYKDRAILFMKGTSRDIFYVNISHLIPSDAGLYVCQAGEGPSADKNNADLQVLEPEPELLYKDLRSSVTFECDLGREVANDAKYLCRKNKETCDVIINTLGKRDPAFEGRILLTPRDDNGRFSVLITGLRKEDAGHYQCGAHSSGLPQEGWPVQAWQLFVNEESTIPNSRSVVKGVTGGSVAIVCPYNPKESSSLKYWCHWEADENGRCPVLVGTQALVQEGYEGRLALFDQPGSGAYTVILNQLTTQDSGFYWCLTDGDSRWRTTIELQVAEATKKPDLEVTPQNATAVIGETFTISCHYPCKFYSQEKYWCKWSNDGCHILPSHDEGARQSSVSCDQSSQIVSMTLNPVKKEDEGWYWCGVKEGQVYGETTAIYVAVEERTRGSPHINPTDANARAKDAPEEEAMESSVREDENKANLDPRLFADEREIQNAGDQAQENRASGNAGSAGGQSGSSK
In a few lines:
as §1

Assay [3] addresses T3, cynomolgus monkey pIgR extracellular domain (cynomolgus monkey, UniProt A0A2K5WMU9 19-638).
T3 construct: extracellular domain
In a few lines: as §1

The target in assay [4] is T4, human pIgR extracellular domain (ECD) (human, UniProt P01833 19-638).
T4 construct: Bought from R&D Systems (Cat 2717-PG-050); also called hpIgR ECD
T4 sequence (P01833 other isoform, or with tags, fused parts or gaps): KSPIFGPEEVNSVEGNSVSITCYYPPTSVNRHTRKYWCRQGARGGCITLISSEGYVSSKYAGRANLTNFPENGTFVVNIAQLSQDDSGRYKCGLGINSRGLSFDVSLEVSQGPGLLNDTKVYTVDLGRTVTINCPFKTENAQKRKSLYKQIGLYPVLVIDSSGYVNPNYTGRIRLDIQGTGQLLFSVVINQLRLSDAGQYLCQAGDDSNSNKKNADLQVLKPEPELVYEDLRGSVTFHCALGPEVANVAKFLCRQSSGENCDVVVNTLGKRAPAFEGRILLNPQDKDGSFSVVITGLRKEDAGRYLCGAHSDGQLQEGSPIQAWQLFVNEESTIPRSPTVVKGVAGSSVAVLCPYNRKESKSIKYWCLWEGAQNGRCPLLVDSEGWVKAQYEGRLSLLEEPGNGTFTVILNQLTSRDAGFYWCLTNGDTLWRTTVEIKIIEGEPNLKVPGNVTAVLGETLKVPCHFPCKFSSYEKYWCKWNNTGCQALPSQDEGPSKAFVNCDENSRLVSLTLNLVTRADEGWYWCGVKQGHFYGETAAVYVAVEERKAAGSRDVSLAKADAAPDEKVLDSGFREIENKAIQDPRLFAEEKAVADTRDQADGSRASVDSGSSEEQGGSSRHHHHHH
Summed up: as §1

The Kd is the concentration at which binding is half-saturated.

T3 sequence (A0A2K5WMU9 entry or part of it): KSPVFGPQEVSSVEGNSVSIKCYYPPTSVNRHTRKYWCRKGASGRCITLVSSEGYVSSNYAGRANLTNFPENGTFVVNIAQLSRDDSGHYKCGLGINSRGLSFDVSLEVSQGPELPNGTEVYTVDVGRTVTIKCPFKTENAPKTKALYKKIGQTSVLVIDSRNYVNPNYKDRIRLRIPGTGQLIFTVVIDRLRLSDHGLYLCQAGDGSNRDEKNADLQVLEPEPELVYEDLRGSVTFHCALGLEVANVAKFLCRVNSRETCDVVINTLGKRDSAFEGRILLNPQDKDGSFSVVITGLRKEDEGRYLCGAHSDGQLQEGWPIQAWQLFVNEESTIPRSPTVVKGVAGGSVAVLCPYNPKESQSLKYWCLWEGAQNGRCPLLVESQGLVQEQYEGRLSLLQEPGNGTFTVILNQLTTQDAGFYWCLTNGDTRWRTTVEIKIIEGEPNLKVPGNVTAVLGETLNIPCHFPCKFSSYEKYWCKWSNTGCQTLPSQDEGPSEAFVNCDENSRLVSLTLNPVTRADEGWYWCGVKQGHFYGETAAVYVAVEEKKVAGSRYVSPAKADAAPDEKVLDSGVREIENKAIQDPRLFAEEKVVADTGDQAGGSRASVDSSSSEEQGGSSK

B1: 01B12R2 VHH Mono-Fc (Fc fusion)
chain: EVQLVESGGGLVQAGGSLRLSCAASGRTFSSGIMGWFRQAPGKEREFVAAIEWSGGNTYKYYAESVKGRFAISRDNAKTTAYLQMGSLNPEDTALYYCAADESPSRYIDLRRPAPYHYWGQGTLVTVSSSPAPELLGGPSVFLFPPKPKDTLMISRTPEVTCVVVDVSHEDPEVKFNWYVDGVEVHNAKTKPREEQYNSTYRVVSVLTVLHQDWLNGKEYKCKVSNKALPAPIEKTISKAKGQPREPQVYTKPPSREEMTKNQVSLSCLVKGFYPSDIAVEWESNGQPENNYKTTVPVLDSDGSFRLASYLTVDKSRWQQGNVFSCSVMHEALHNHYTQKSLSLSPGK
As for B1, the Kd was 107 nM in assay [1], 18.2 nM in assay [2], 6.54 nM in assay [3] and 4.48 nM in assay [4].

B2: 01H08R3 VHH Mono-Fc (Fc fusion)
chain: QVQLVESGGGSVQTGGSLRLSCTASGRTFSNYGMGWFRQAPGKEREFVAGITRSGRTTYYYYADAVKGRFTIPRDNADNTIYLQMDSMKPDDTAVYYCAARQGENNYDPRSGSAYNYWGPGTQVTVSSSPAPELLGGPSVFLFPPKPKDTLMISRTPEVTCVVVDVSHEDPEVKFNWYVDGVEVHNAKTKPREEQYNSTYRVVSVLTVLHQDWLNGKEYKCKVSNKALPAPIEKTISKAKGQPREPQVYTKPPSREEMTKNQVSLSCLVKGFYPSDIAVEWESNGQPENNYKTTVPVLDSDGSFRLASYLTVDKSRWQQGNVFSCSVMHEALHNHYTQKSLSLSPGK
With B2, the Kd is 3.95 nM in assay [1], 6.19 nM in assay [2], 44.3 nM in assay [3] and 61 nM in assay [4].

B3: 01F04R2LS VHH Mono-Fc (Fc fusion)
chain: EVQLVESGGGLVQTGGSLRLSCAASGRTFSSYAMGWFRQAPGKEPERDFVAALRWSNDRTYYKYYADSVKGRFTISRDNAKNTVYLQMNTLKPEDTAVYYCAGGNYFSDPRVDKEYNYWGQGTQVTVSSSPAPELLGGPSVFLFPPKPKDTLMISRTPEVTCVVVDVSHEDPEVKFNWYVDGVEVHNAKTKPREEQYNSTYRVVSVLTVLHQDWLNGKEYKCKVSNKALPAPIEKTISKAKGQPREPQVYTKPPSREEMTKNQVSLSCLVKGFYPSDIAVEWESNGQPENNYKTTVPVLDSDGSFRLASYLTVDKSRWQQGNVFSCSVMHEALHNHYTQKSLSLSPGK
Regarding B3, the dissociation constant Kd in assay [1] was 9.03 nM; in assay [2], 8.9 nM; in assay [3] it was 28 nM; in assay [4], 35.8 nM.

B4: 01D05R2LS VHH Mono-Fc (Fc fusion)
chain: EVQLVESGGGLVQTGGSLRLSCAASGRTFSPYAMGWFRQAPGKEREFVAAIRWSGATTYKYVGDSVQGRFTISRDAAGNTVYLQMNSVKPEDTAVYYCAADRVPKDISIDPRNPKDWDYWGKGTLVTVSSSPAPELLGGPSVFLFPPKPKDTLMISRTPEVTCVVVDVSHEDPEVKFNWYVDGVEVHNAKTKPREEQYNSTYRVVSVLTVLHQDWLNGKEYKCKVSNKALPAPIEKTISKAKGQPREPQVYTKPPSREEMTKNQVSLSCLVKGFYPSDIAVEWESNGQPENNYKTTVPVLDSDGSFRLASYLTVDKSRWQQGNVFSCSVMHEALHNHYTQKSLSLSPGK
Turning to B4, the dissociation constant Kd is 13.9 nM in assay [1], 33.3 nM in assay [2], 116 nM in assay [3] and 7.9 nM in assay [4].

B5: 01B06R2LS VHH Mono-Fc (Fc fusion)
chain: QVQLVESGGGLVQTGGSLRLSCAASGRTFSPYAMGWFRQAPGKEREFVAAIRWSGATTYKYVGDSVQGRFTISRDAAGNTVYLQMNSVKPEDTAVYYCAADRVPKDISIDPRNPKDWDYWGKGTLVTVSSSPAPELLGGPSVFLFPPKPKDTLMISRTPEVTCVVVDVSHEDPEVKFNWYVDGVEVHNAKTKPREEQYNSTYRVVSVLTVLHQDWLNGKEYKCKVSNKALPAPIEKTISKAKGQPREPQVYTKPPSREEMTKNQVSLSCLVKGFYPSDIAVEWESNGQPENNYKTTVPVLDSDGSFRLASYLTVDKSRWQQGNVFSCSVMHEALHNHYTQKSLSLSPGK
Regarding B5, the dissociation constant Kd in assay [1] was determined as 14.8 nM; in assay [2], 33.2 nM; in assay [3], 111 nM; in assay [4], 8.46 nM.

B6: 01H01R2LS VHH Mono-Fc (Fc fusion)
chain: EVQLVESGGGLVQTGGSLRLSCAASGRTFSPYAMGWFRQAPGKEREFVAAIRWSGATTYKYVGGSVQGRFTISRDAAGNTVYLQMNSVKPEDTAVYYCAADRVPKDISIDPRNPKDWDYWGKGTQVTVSSSPAPELLGGPSVFLFPPKPKDTLMISRTPEVTCVVVDVSHEDPEVKFNWYVDGVEVHNAKTKPREEQYNSTYRVVSVLTVLHQDWLNGKEYKCKVSNKALPAPIEKTISKAKGQPREPQVYTKPPSREEMTKNQVSLSCLVKGFYPSDIAVEWESNGQPENNYKTTVPVLDSDGSFRLASYLTVDKSRWQQGNVFSCSVMHEALHNHYTQKSLSLSPGK
On to B6, for which the dissociation constant (Kd) in assay [1] came to 12.8 nM; in assay [2] it was 18.1 nM; in assay [3] it was 123 nM; in assay [4] it was 6.91 nM.

B7: 01A09R3L VHH Mono-Fc (Fc fusion)
chain: EVQLVESGGGVVQAEDSLRLSCAASGLSFSLSRMGWFRQAPGKEREFVATIEWSGRSTYKYYDDSVKGRFAVSGDNTKNTMNLQMKGLNLEDTGVYYCAANPNNYGDPRTPGAYQYWGQGTQVTVSSSPAPELLGGPSVFLFPPKPKDTLMISRTPEVTCVVVDVSHEDPEVKFNWYVDGVEVHNAKTKPREEQYNSTYRVVSVLTVLHQDWLNGKEYKCKVSNKALPAPIEKTISKAKGQPREPQVYTKPPSREEMTKNQVSLSCLVKGFYPSDIAVEWESNGQPENNYKTTVPVLDSDGSFRLASYLTVDKSRWQQGNVFSCSVMHEALHNHYTQKSLSLSPGK
Consider B7, for which the Kd in assay [1] came out at 0.301 nM; in assay [2], 0.234 nM; in assay [3], 0.353 nM; in assay [4], 0.681 nM.

B8: 01B08R2 VHH Mono-Fc (Fc fusion)
chain: EVQLVESGGRLVQAGGSLRLSCAASGLTRSDYAMGWFRQAPGKEREFVATLKWSEGSRFMYRAEDVKGRFTISSGAAKTTVWLDMDALNPEDTAVYYCAAGFNVGFVRRASEYNFWGQGTLVTVSSSPAPELLGGPSVFLFPPKPKDTLMISRTPEVTCVVVDVSHEDPEVKFNWYVDGVEVHNAKTKPREEQYNSTYRVVSVLTVLHQDWLNGKEYKCKVSNKALPAPIEKTISKAKGQPREPQVYTKPPSREEMTKNQVSLSCLVKGFYPSDIAVEWESNGQPENNYKTTVPVLDSDGSFRLASYLTVDKSRWQQGNVFSCSVMHEALHNHYTQKSLSLSPGK
Take B8: the Kd in assay [1] is 586 nM; in assay [2], 116 nM; in assay [3] it was 219 nM; in assay [4], 1.05 nM.

B9: 02B12R3 VHH Mono-Fc (Fc fusion)
chain: QVQLVESGGGWVQTGGSLRLSCAASGRTVSSYYMGWFRQTPGKEREFVAAISWVGSSTYKYYTDSAKGRFTISRDNAKNTVYLQMNSLKPEDTAVYYCAARPRVGDPRSRYDDDNWGQGTQVTVSSSPAPELLGGPSVFLFPPKPKDTLMISRTPEVTCVVVDVSHEDPEVKFNWYVDGVEVHNAKTKPREEQYNSTYRVVSVLTVLHQDWLNGKEYKCKVSNKALPAPIEKTISKAKGQPREPQVYTKPPSREEMTKNQVSLSCLVKGFYPSDIAVEWESNGQPENNYKTTVPVLDSDGSFRLASYLTVDKSRWQQGNVFSCSVMHEALHNHYTQKSLSLSPGK
For B9, the equilibrium dissociation constant (Kd) worked out at 4.32 nM in assay [1], 3.44 nM in assay [2], 31.5 nM in assay [3] and 16.6 nM in assay [4].

B10: 02E01R3LS VHH Mono-Fc (Fc fusion)
chain: QVQLVESGGGLVQAGDSLRLSCAASGRTFTTYGMGWFRQAPGKEREFVTTITWSGSTNYKYYADSVKGRFTISRDNAKNTVYLQMNSLKPDDTAVYYCAASTVLRDPRVPTEYDYWGQGTQVTVSSSPAPELLGGPSVFLFPPKPKDTLMISRTPEVTCVVVDVSHEDPEVKFNWYVDGVEVHNAKTKPREEQYNSTYRVVSVLTVLHQDWLNGKEYKCKVSNKALPAPIEKTISKAKGQPREPQVYTKPPSREEMTKNQVSLSCLVKGFYPSDIAVEWESNGQPENNYKTTVPVLDSDGSFRLASYLTVDKSRWQQGNVFSCSVMHEALHNHYTQKSLSLSPGK
In the case of B10, the Kd in assay [1] is 2.77 nM; in assay [2], 1.64 nM; in assay [3], 5.05 nM; in assay [4] it was 5.32 nM.
